{
  "source": "the supplement of paper PMC12636428",
  "data": [
    {"test_system": "Saccharomyces cerevisiae", "assay": "transcriptional activation domain activity (GFP:mCherry ratio, weighted mean of sorted bins, harmonized to initial dataset scale) (arbitrary fluorescence ratio units); higher = stronger transcriptional activation", "details": "beta-estradiol 1 µM; induction time 4 h", "how_it_was_run": "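Values are activation activity, found as the read-weighted mean of bin median fluorescence, averaged across barcodes and then mapped linearly onto the initial dataset scale. Barcoded protein tiles fused to an estradiol-inducible synthetic transcription factor were integrated at the URA3 locus of GFP-reporter yeast diploids. Cells were induced for 4 hours at 30 °C with 1 uM beta-estradiol in SC, sorted into 8 bins by GFP:mCherry ratio, and barcode-sequenced, with tiles under 50 reads discarded.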", "values": [
      {"sequence": "MASALLDFPYLHLGIPSFLRVNLFLNIHVHFFFVHFCLSPSVRFIFFYFFLYL", "transcriptional activation domain activity": 50300},
      {"sequence": "MYICVRKVYVHFDMNLRVYWIVAIMVKCICGLVELCLITSPPYIMLVLSKLFL", "transcriptional activation domain activity": 32100},
      {"sequence": "LLQSLKRTTEIPVKDAFLGLLRADACFCIYRMLRCTNVNLPICRLTGLLDVIR", "transcriptional activation domain activity": 61400},
      {"sequence": "KHLEAADGVEDDHRSTVIDQGNDELLVKWASDEGIIEKKPQGRFRLILGGGAS", "transcriptional activation domain activity": 70100},
      {"sequence": "ESKDKSKEGKSKRGDKTLDTKGKSEEENKKGGDKKDEKKKDEKKKEEEEKEKA", "transcriptional activation domain activity": 25400},
      {"sequence": "LFFLSFLFFPFLSFLSFLFLFSFLFFPSFLFFPSLFLFLFSSPFHPIPFLFSS", "transcriptional activation domain activity": 57800},
      {"sequence": "YVSVNEHGDETDSSFVRLVNLGSSIVIQHITCYLQSRVVFYLMNLHSMPRAIF", "transcriptional activation domain activity": 60800},
      {"sequence": "GKRNSGAGGASAKAKARGAGKKPAAAGGKAGKKNVRAAKSKGKAAGARTKPAA", "transcriptional activation domain activity": 43900},
      {"sequence": "VASVLVFICHYTECNWGDLTHFYGVNKEHPGSFIQMPYIRLIYSGRPMVHIFF", "transcriptional activation domain activity": 29900},
      {"sequence": "LPTNPTTHPLLFSAIHFFIYNVGDLLGRYICSFSCFIIWSQPMLLGLSLARVV", "transcriptional activation domain activity": 77600},
      {"sequence": "EAEGEAGAEEPAAEGEAGAEGEAGGEGELEAEPAAEGEGEAEPEAGAETEAAG", "transcriptional activation domain activity": 13200},
      {"sequence": "MARNIYVIYIPKSICCSLPLSVPLSLLPLPSLPLFPSLTSTLLFFVLFHFFLL", "transcriptional activation domain activity": 49600},
      {"sequence": "KDEVMKIKPVQKQTTAGQRTRFKAVVIVGDSNGHVGLGIKSAKEVATAIRAAI", "transcriptional activation domain activity": 55100},
      {"sequence": "KQYCVRPNSGRIEPGKEVDVQVLLQAMKEDPPLDAKCRDKFLVQSVAVTADKE", "transcriptional activation domain activity": 27100},
      {"sequence": "EQAAKKKTAAPAAAPKAEAAKAPEVKAEAAAPAPEPEKPAAGGKKKKLNPALL", "transcriptional activation domain activity": 52300},
      {"sequence": "MREAERAREEQEQERRRVEKVREREREREQERLERERLKAERERAAAAAVVAA", "transcriptional activation domain activity": 40100},
      {"sequence": "EVTEAEANGETPNAEGVTPAEGEQKPKKKRKSNRKKKAAATPAEGEAAKEAPA", "transcriptional activation domain activity": 34500},
      {"sequence": "GGGGGSSRKRARGGESEDEAAGARANGVGNGPSNGKGKEKGKEVVDDGVAVGS", "transcriptional activation domain activity": 55900},
      {"sequence": "MYILILIFFLSFFLSFLNGSILYLGIVLLPCAYRRVYTVVCLVFTIQIVLRIK", "transcriptional activation domain activity": 61400},
      {"sequence": "PDISAYDDERLKEGRLIAEFILNRTQYAPDETSKNDRVSDSEVPWMDFPSELN", "transcriptional activation domain activity": 37600},
      {"sequence": "EREREKREEREREAARLRREAEEREREEHEGRKREKREEPEEREAEEREREVE", "transcriptional activation domain activity": 33200},
      {"sequence": "PILLILLLLHVGFFGGYYFVICLGGLFDVCLSQLLVYKWQSFGFYWRIVVFLW", "transcriptional activation domain activity": 78100},
      {"sequence": "GIPVKAYPPNGVYPFSGLSCYAMIVSFLHSELDMVYMTFRELYARYFHHLHTI", "transcriptional activation domain activity": 70500},
      {"sequence": "MARQLYSPFFIFLYLPSCIYKNILFSSFLFFLTSLIGIFLHPFFNIVCFICQM", "transcriptional activation domain activity": 58500},
      {"sequence": "MHILFLSLFFCFTLRFSLILLFGVIWLVKAFKYCHLVYWKLITYFNLLIFALY", "transcriptional activation domain activity": 54800},
      {"sequence": "MPPVAKQKRSAADRAKGASRAKSGCYTCRIRRKKCDEERDEHDHCRTCTRLRL", "transcriptional activation domain activity": 23700},
      {"sequence": "VPVNPLALSPETGGPKKLPVARVLVDDEEDEEAKKLSTKPRLVIVGGGWGAVG", "transcriptional activation domain activity": 41900},
      {"sequence": "VANILCLSTSLLACSMVFWSIPSWYYLVSHYQEWMPHVILPLYLLWWLFMMLV", "transcriptional activation domain activity": 39200},
      {"sequence": "VWVKTPWNLYALLLATLSHSLMIDPLLGVLLYYSSITWDPLYRILIFCIFAFW", "transcriptional activation domain activity": 45400},
      {"sequence": "LCSWLIPRVLVLLGRKGCEKLMENIKALFDLFFQIIPQYPNFWCWESILLDYL", "transcriptional activation domain activity": 41800},
      {"sequence": "VEQYLHLLPPHSLQEIRWRWRMTKVSRPIPEKMKLVRLNLKAVKHIHLFMKSA", "transcriptional activation domain activity": 31500},
      {"sequence": "ATAAAAVKSPRSKSKEPKKSLDAAAAVAATSPAPVAAEEPAAAAVVEEPAKPA", "transcriptional activation domain activity": 41400},
      {"sequence": "LGTEVVTLEDEIYYIWVRYYSIALLVFDTPNSHLCHSRNNLGQLVAVINVFLF", "transcriptional activation domain activity": 46300},
      {"sequence": "EAPKPAPEQPKPKPVQEKPAAPAAETKEKGKAAPEPEAEDKKPARRPRKAKQP", "transcriptional activation domain activity": 8950},
      {"sequence": "ASSSTPGAHQPTRRSAGAHRSEEHSVVLHLPPGTHRMKFIVDDRWRVSRELPT", "transcriptional activation domain activity": 29000},
      {"sequence": "KINQIFGYRSGLGFSIITLDWNQIAYIGSPYVAGSFRWAEANVMIGFMFFYWF", "transcriptional activation domain activity": 70300},
      {"sequence": "MDGGLFCVSISLVHFLLLLFPSHPLILRLIFLLFTFHFPVRLYFNFVLLQLLT", "transcriptional activation domain activity": 67900},
      {"sequence": "MDTSNSWFDASKVQSLNFDLQTNSYYSNARGSDPSSYAIEGEYKTLATDDLGN", "transcriptional activation domain activity": 14200},
      {"sequence": "LFGLFGPLDLWTFWTFGLFGLFGLFGLFGLFGLGLFGLLDFLDFWPWTFWPWI", "transcriptional activation domain activity": 57700},
      {"sequence": "RNILLFTMVADGESSLVIWSIFYHFFLDDNSLGLLLAQCRKLVQISNDMQTWM", "transcriptional activation domain activity": 58900},
      {"sequence": "GNGKNKHTQRHRGGEKRNLPPSKKQRRKKKSRRIRHRKAQPHPDDEQLQDDKG", "transcriptional activation domain activity": 17000},
      {"sequence": "DVEMLKGLALRNPLEEGEDEAASLSQYAVNRQILLTYVILKLKLIRGKCILFV", "transcriptional activation domain activity": 35000},
      {"sequence": "MLMHASPRMPIVQIFFFIFIHLSPPPFPFFFSLILSHRYSISFFLSLFSLLYF", "transcriptional activation domain activity": 35800},
      {"sequence": "TEAPKEEAAPAPVEEAPKQEEAPADAPAEEAAPAAAEEAPKETAAASPPKRGI", "transcriptional activation domain activity": 47800},
      {"sequence": "MPAYLDKPLTFLAFDWCVTFFFFCCFFLLILFLSLLVINVIVLCLLPLISLVS", "transcriptional activation domain activity": "< 6570"},
      {"sequence": "INSTIHNLLEVVLLPDLCGFCCFSMRFVVLLDLIGTLTLPVSAVYLVYLIYVI", "transcriptional activation domain activity": 59000},
      {"sequence": "DDDDDDVETHSIVHSDLLNDMDSASQRASHNASGFPNFLDTSCSSSFDDHFIF", "transcriptional activation domain activity": 69100},
      {"sequence": "LTKKALDRLLGGDLSSLVAATISVSDWILDVAISSHDRISCILVTAHNTVLQA", "transcriptional activation domain activity": 35700},
      {"sequence": "VVHLLSPKRLDILWGVNPKGIHIFRMVLFISLLFSYLGRSGSLMLSIARIFTY", "transcriptional activation domain activity": 45900},
      {"sequence": "MNLVSLAAVCLFYFFSPTLFFVPSLCSHGHLFTYGHFLLLLCSLILPWTCFRL", "transcriptional activation domain activity": 72000},
      {"sequence": "LLWSYLLPLFFSLLNELCKRFLPFPLFPLFFYIPCAFYPSPTLSVCSHPLLFI", "transcriptional activation domain activity": 61500},
      {"sequence": "SFKPAPAPAAEEAPKTEETPAPAETEAAAEEAKPAEEPKKEEVKEEPKRRSAS", "transcriptional activation domain activity": 35500},
      {"sequence": "GFCMASKTLALVLRHLRRYRWCLVARIRRKATEISTRFCALGGILIIYIRNVS", "transcriptional activation domain activity": 73500},
      {"sequence": "GQTHVHFFPSLSHFYPLFFSFYNVLYPPCLYVRICPISLLLLLWWCFYLTFFC", "transcriptional activation domain activity": 44100},
      {"sequence": "ITALVIFWSIPVAFVGSLSNLDSLTNKVHFLRFLNHLPKKLKGLVTSLLPTIL", "transcriptional activation domain activity": 34700},
      {"sequence": "SHPDIMDAAVIGVEGEGTEVPRAYVVADRKKVNEKKVQEWVKGRTARNKRLRG", "transcriptional activation domain activity": 25900},
      {"sequence": "WSHPLRMTYFLVLVFFSCTWVGGVLRRGWGYLVLNAFCRHSYICGVCCIHYLS", "transcriptional activation domain activity": 18800},
      {"sequence": "STTYYVLSLITFSSFPSIMVSYYSLLFSFFFISLCFLFPLPFVSSLFSHLILF", "transcriptional activation domain activity": 40300},
      {"sequence": "HSSIEWLMGWPAGLKLNKELALFLGDLFLWVIEYWSSCISALQPLLPHMVWFI", "transcriptional activation domain activity": 39900},
      {"sequence": "EEEQPKKKSARKKKNAEDEDEDWDAKPKPKAKPKAKAAKKKAADGEEAGDAEK", "transcriptional activation domain activity": 26200},
      {"sequence": "MVQAVIRLILDYCRYLVVSFYQFCLCCYSPLMCVPGHGIMLITSLFLKLIHVI", "transcriptional activation domain activity": 58200},
      {"sequence": "SASASAAPAASTAGSADKSGGAQEKHRGGRRRGGRGRGDKESGGKEGGSKNTE", "transcriptional activation domain activity": 34400},
      {"sequence": "RSSSGKDRDRERDGGRDRNGKSSSSSRRREKERDEDSGDERRKSSSSSRRRRD", "transcriptional activation domain activity": 44400},
      {"sequence": "HFAFESLAQTKHLERICMLSIRFVYVYAPHGEPIQLVVGFLICLLSNSPVSNG", "transcriptional activation domain activity": 55200},
      {"sequence": "TDVYYALRPGYQDDEVWDLLPLPTFPQLHMLTLNMLHISFQFPNWWTLWFKWI", "transcriptional activation domain activity": 68900},
      {"sequence": "MLRPYFFSPHFLLFVLVSAFNPGYYPPSLQFLSIICLYIFICPPPFFFISFPP", "transcriptional activation domain activity": 50800},
      {"sequence": "GAVMPILMQFFFIMAWNGICNGMHLYAAYNLRTHVLARLFWSILWPLLSSLCS", "transcriptional activation domain activity": 59900},
      {"sequence": "MSPLPSPLSFPLFLFFSLSLSNLVCMPHPLLSSLSLSTPPALFFLYLFFLATL", "transcriptional activation domain activity": 55100},
      {"sequence": "LYLSLLKRKTTIWFFVYVVLQNYFLSTLYGRNWFFLFSSQHAPTWSIWLLAFI", "transcriptional activation domain activity": 57300},
      {"sequence": "CRGIYTLHTTNLMIVDDIVYLWRYDRQNVIQSTGLNFITDMPYFMALLAVFQR", "transcriptional activation domain activity": 48500},
      {"sequence": "MGLWARFICFVIVCFQIISLYCLFSCSLFFLYLQKTQPHFFLLSLFPSSFPPS", "transcriptional activation domain activity": 62700},
      {"sequence": "LKLLVCVLWCLDTFDFILNCNLLYLFLVTNYMNPLILIKRPPWSLVLHVAVTV", "transcriptional activation domain activity": 53400},
      {"sequence": "SGICRLTFSFSTLFFNPDPSFSFFLSFFFLFFFSFLLLSFLLNLFPFLDFFFF", "transcriptional activation domain activity": 24000},
      {"sequence": "GKKGSSGAKKGGKKGSSTGAKEEVAKKPSIEKSGEKKSEGGEKKENDEKKNDK", "transcriptional activation domain activity": 37900}
    ]}
  ]
}
